# Measurements reported in patent US11078246B2, “Peptides binding to Bfl-1” (Dana-Farber Cancer Institute, Inc., priority 2015, dated 2021).
# Residue numbers refer to the chain shown, from its start. Positions of bridges follow the written chain, without caps; N, C: chain ends. Non-standard residues stand in square brackets, D forms with d. No end group written: not given here. S5 = C=CCCC[C@](C)(N)C(=O)O
# Columns and labels:
# Bfl-1 [1] = biological target: T1, Bfl-1 (Homo sapiens, UniProt Q16548); assay: Bfl-1:Warhead SAHB conjugation assay; assay type: binding; conditions: conjugation with Bfl-1
# T1 sequence (Q16548 1-175): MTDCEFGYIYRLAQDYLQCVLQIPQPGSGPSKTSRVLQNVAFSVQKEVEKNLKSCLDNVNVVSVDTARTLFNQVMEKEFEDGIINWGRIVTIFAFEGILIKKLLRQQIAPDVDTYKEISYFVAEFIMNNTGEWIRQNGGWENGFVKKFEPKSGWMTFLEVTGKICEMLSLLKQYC
# Procedure: Proteins were serially diluted from 1 μM, then combined with FITC-labeled SAHB and polarization measured at 5 min on a microplate reader. We then calculated dissociation constants (KD) by nonlinear regression analysis of dose-response curves. […] Samples were then combined with loading dye, run on a 12% Bis-Tris SDS-PAGE, and stained with Coomassie. The same setup was used for all antiapoptotic proteins tested.
# Bfl-1 [2] = biological target: T1, Bfl-1; assay: Competitive binding assay after pre-forming the Bfl-1:NOXA disulfide bond; conditions: Bfl-1:NOXA disulfide bond pre-formed
# Procedure: The functional impact of the Bfl-1:NOXA disulfide bond formation was evaluated using competitive binding assays and liposomal release assays.
# BFL-1ΔC [3] = biological target: T2, BFL-1ΔC (Homo sapiens, UniProt Q16548); assay: In vitro covalent conjugation assay (DTT reduction, GSSG oxidation); assay type: binding; conditions: DTT 10 mM then GSSG 12 mM; Coomassie, FITC scan
# T2 construct: cDNA encoding BFL-1ΔC (aa 1-153) was cloned into the pET19b expression vector; made in house; host or cells: Escherichia coli BL21(DE3) LOBSTR
# T2 sequence (Q16548 1-153): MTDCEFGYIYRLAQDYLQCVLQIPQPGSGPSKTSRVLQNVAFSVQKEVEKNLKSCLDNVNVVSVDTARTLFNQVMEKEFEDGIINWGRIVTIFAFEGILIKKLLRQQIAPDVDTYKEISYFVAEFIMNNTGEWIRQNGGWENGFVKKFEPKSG
# Procedure: (§1) Biolayer Interferometry: Binding analyses of NOXA peptide interactions with BFL-1ΔC were performed on an Octet RED384 system (Fortebio, Menlo Park, Calif.) at 30° C. Super streptavidin (SSA) tips were prewetted in 1× kinetics buffer (PBS, pH 7.4, 0.01% BSA, 0.002% Tween-20) and then conjugated to NOXA SAHBs bearing an N-terminal biotin-PEG linker (10 μg/mL). Excess streptavidin was quenched by incubation with 2 μg/mL biocytin. The tips were then washed with kinetics buffer and soaked in a serial dilution of BFL-IAC for 10 min to measure association rate, followed by a 15 min incubation in kinetics buffer to measure dissociation rate. Dissociation constants were calculated using Octet Data Analysis version 9.0. […] After this incubation in a reducing environment, the mixture was diluted 5-fold into 50 mM Tris pH 8.0, 100 mM NaCl, 12 mM GSSG and incubated in the dark for an additional 30 min at RT. […] The gel was rinsed with water, subjected to FITC scan (Typhoon FLA 9500, GE Healthcare) and then Coomassie staining.
# Bfl-1 [4] = biological target: T1, Bfl-1; assay: Bfl-1:NOXA conjugation assay (disulfide bond, GSSG oxidation); assay type: binding; conditions: non-reducing SDS-PAGE
# Procedure: Next, the impact of the Cys25 in NOXA was investigated. […] The distance between the sulfurs of the cysteine residues is 3.5 A according to the previously determined crystal structure of the bound proteins (PDB ID 3MQP). […] To examine the impact of Cys25 in NOXA on target interaction, we examined the binding of WT NOXA SAHB and NOXA C25S SAHB to Bfl-1 and to a variety of Bfl-1 cysteine mutants. In vitro conjugation assays were performed in order to verify the formation of the disulfide bond. Global reduction of the protein and the NOXA peptides, followed by the introduction of an oxidant such as GSSG led to production of a disulfide bond, shown as a 3 kDa shift on non-reducing SDS-PAGE (FIG. 4A). […] (FIG. 4A).
# Fluorescence polarization assay: The solution-state equilibrium binding assay was used to determine binding affinities of the stapled peptides to the anti-apoptotic proteins. Proteins were serially diluted from 1 μM, then combined with FITC-labeled SAHB and polarization measured at 5 min on a microplate reader. We then calculated dissociation constants (KD) by nonlinear regression analysis of dose-response curves. […] Samples were then run on non-reducing SDS-PAGE, scanned for fluorescence, then stained with Coomassie. […] Plates were read following liposome lysis with 1% Triton X-100 to determine maximal release (F100). Percent ANTS/DPX release was calculated as […]. […]
# Bfl-1 [5] = biological target: T1, Bfl-1; assay: Liposomal release assay (Bfl-1 inhibition of BAX activation); assay type: biochemical
# Procedure: Fluorescence polarization assay: The solution-state equilibrium binding assay was used to determine binding affinities of the stapled peptides to the anti-apoptotic proteins. Proteins were serially diluted from 1 μM, then combined with FITC-labeled SAHB and polarization measured at 5 min on a microplate reader. We then calculated dissociation constants (KD) by nonlinear regression analysis of dose-response curves. Bfl-1:NOXA conjugation assay: The conjugation assay was developed to test for disulfide bond formation in a non-reducing environment, 3:1 FITC-stapled peptide:protein molar ratio was combined in the presence of DTT, then diluted and incubated with 1.2 molar excess GSSG. Samples were then run on non-reducing SDS-PAGE, scanned for fluorescence, then stained with Coomassie. […] ANTS release and dequenching due to DPX dissociation (F) was measured over a period of 120 min with an M1000 Infinite plate reader (Tecan) with excitation and emission wavelengths of 355 nm and 520 nm, respectively. Plates were read following liposome lysis with 1% Triton X-100 to determine maximal release (F100). Percent ANTS/DPX release was calculated as […]. […]
# BFL-1ΔC [6] = biological target: T3, BFL-1ΔC (Homo sapiens, UniProt Q16548, C19S/C4S); assay: In vitro covalent conjugation assay (DTT reduction, GSSG oxidation); assay type: binding; conditions: Coomassie, FITC scan
# T3 construct: cDNA encoding BFL-1ΔC (aa 1-153) was cloned into the pET19b expression vector; made in house; host or cells: Escherichia coli BL21(DE3) LOBSTR
# T3 sequence (Q16548 1-153 C4S/C19S): T2 sequence (Q16548 1-153) with C4S, C19S
# Procedure: as §1
# BFL-1ΔC [7] = biological target: T4, BFL-1ΔC (Homo sapiens, UniProt Q16548, C19S/C4S/C55S); assay: as above; assay type: binding; conditions: Coomassie, FITC scan
# T4 construct: cDNA encoding BFL-1ΔC (aa 1-153) was cloned into the pET19b expression vector; made in house; host or cells: Escherichia coli BL21(DE3) LOBSTR
# T4 sequence (Q16548 1-153 C4S/C19S/C55S): T2 sequence (Q16548 1-153) with C4S, C19S, C55S
# Procedure: as §1
# MCL-1ΔNΔC = biological target: T5, MCL-1ΔNΔC (Homo sapiens, UniProt Q07820); assay: In vitro covalent conjugation assay (oxidizing conditions); assay type: binding
# T5 construct: MCL-1ΔNΔC (aa 170-327) and BCL-XLΔC (aa 1-212) constructs were cloned into pGEX-4T-1; GST (N, cleaved yes); made in house; host or cells: Escherichia coli BL21(DE3)
# T5 sequence (Q07820 170-327, stated change not applied): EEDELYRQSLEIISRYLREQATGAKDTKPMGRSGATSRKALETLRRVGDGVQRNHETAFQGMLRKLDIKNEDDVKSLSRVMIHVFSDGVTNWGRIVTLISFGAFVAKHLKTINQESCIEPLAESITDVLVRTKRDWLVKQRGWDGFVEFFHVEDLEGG
# BCL-XLΔC = biological target: T6, BCL-XLΔC (Homo sapiens, UniProt Q07817); assay: as above; assay type: binding
# T6 construct: MCL-1ΔNΔC (aa 170-327) and BCL-XLΔC (aa 1-212) constructs were cloned into pGEX-4T-1; GST (N, cleaved yes); made in house; host or cells: Escherichia coli BL21(DE3)
# T6 sequence (Q07817 1-212, stated change not applied): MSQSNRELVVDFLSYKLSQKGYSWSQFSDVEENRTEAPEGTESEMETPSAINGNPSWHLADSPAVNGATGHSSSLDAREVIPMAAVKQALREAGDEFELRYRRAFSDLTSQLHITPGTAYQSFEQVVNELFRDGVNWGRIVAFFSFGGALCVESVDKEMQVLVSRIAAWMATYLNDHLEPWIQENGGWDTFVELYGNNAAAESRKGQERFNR
# GST-MCL-1ΔNΔC = biological target: T7, GST-MCL-1ΔNΔC (Homo sapiens, UniProt Q07820); assay: Streptavidin pull-down from anti-apoptotic protein mixture; assay type: binding; conditions: 1:1:1:1 mixture, 1 μM each, biotinylated SAHB
# T7 construct: MCL-1ΔNΔC (aa 170-327) and BCL-XLΔC (aa 1-212) constructs were cloned into pGEX-4T-1; made in house; host or cells: Escherichia coli BL21(DE3)
# T7 sequence (Q07820 170-327, stated change not applied): as the sequence (Q07820 170-327, stated change not applied) above
# Procedure: Streptavidin Pull-down: Recombinant His-BFL-1ΔC, BCL-XLΔC (tagless) and GST-MCL-1ΔNΔC (1 μM each) were combined and reduced with 3 mM DTT in PBS for 30 min at RT, and then incubated with 1 μM biotinylated SAHBA, SAHBA-3 or vehicle for 4 h at RT. The mixtures were then combined with PBS-washed high-capacity SA agarose (Thermo Fisher Pierce) and incubated with rotation for 2 h at RT. The beads were centrifuged at 3000 rpm, washed twice with NP-40 lysis buffer (1% NP40, 50 mM Tris pH 8.0, 100 mM NaCl, 2.5 mM MgCl2), once with PBS, and then bound protein eluted by boiling in 10% SDS containing 10 mg/mL biotin. Inputs (10%) and eluates were electrophoresed on a 12% Bis-Tris gel and then subjected to silver stain and imaging.
compound,measurement,setting,value
O=C(O)[C@H]1CCCCN1 [D-homoproline],covalent binding efficiency (comparative),Bfl-1 [1],less efficient
O=C(O)[C@@H]1CCCCN1 [L-homoproline],covalent binding efficiency (comparative),Bfl-1 [1],less efficient
CN(C)C/C=C/C(=O)O [trans-4-dimethylaminocrotonic acid],covalent binding efficiency (comparative),Bfl-1 [1],less efficient
NOXA SAHBA C25S: stapled NOXA BH3 peptide with C25S substitution; SEQ ID NO:13 (AELEVESATQLR[S5]FGD[S5]LNFRQKLL; staple 13-17),availability of the Bfl-1 binding pocket to another FITC BH3 domain,Bfl-1 [2],abrogated these inhibitory effects
same,molecular weight shift (disulfide adduct) of wild-type BFL-1ΔC,BFL-1ΔC [3],not
"NOXA SAHBA: stapled NOXA BH3 (aa 19-43), i, i+4 hydrocarbon staple replacing R31 and K35, native C25; SEQ ID NO:9 (AELEVECATQLR[S5]FGD[S5]LNFRQKLL; staple 13-17)","covalent (disulfide) bond formation with Bfl-1, BCL-XL and MCL-1",Bfl-1 [4],only Bfl-1 forms a covalent bond
same,availability of the Bfl-1 binding pocket to another FITC BH3 domain,Bfl-1 [2],significantly decreased the availability of the Bfl-1 binding pocket
same,anti-apoptotic effects of Bfl-1 on BAX,Bfl-1 [5]; Bfl-1:NOXA disulfide bond formed prior to assay,almost completely abrogates the effects of Bfl-1
same,anti-apoptotic effects of Bfl-1 on BAX,Bfl-1 [5]; peptide added concurrently with Bfl-1,somewhat inhibited
same,molecular weight shift (disulfide adduct) of wild-type BFL-1ΔC,BFL-1ΔC [3],shift in the molecular weight
same,disulfide adduct with BFL-1ΔC C4S/C19S (only C55 present),BFL-1ΔC [6],molecular weight shift
same,disulfide adduct with BFL-1ΔC C4S/C19S/C55S (lacks C55),BFL-1ΔC [7],no adduct
same,molecular weight shift or FITC labeling of MCL-1ΔNΔC,MCL-1ΔNΔC,no molecular weight shift or FITC labeling
same,molecular weight shift or FITC labeling of BCL-XLΔC,BCL-XLΔC,no molecular weight shift or FITC labeling
same,MCL-1ΔNΔC engagement in SA pull-down,GST-MCL-1ΔNΔC,prominent non-covalent capture
